The values that follow come from US20030103946A1, “Immunotherapeutic methods and molecules” (Imperial College Innovations Limited, priority 2000, published 2003).

One assay addresses T1, HLA-A0201 (Homo sapiens, UniProt P04439, D140Y/D185E/D98H/E176V/E277Q/G131W/G231S/I119V/I121R/I166T/I218V/L300P/L318F/N151K/N90K/P208A/P217A/Q86G/Q94H/R138H/R169H/T345S).
T1 construct: ability of peptides to stabilise HLA-A0201 expression in the TAP-deficient T2 cells; endogenous in cells; host or cells: T2 cells (human, TAP-deficient; ATCC CRL 1992)
The experiment in a line: T2 assay: HLA-A0201 binding of peptides (stabilisation of HLA-A0201 expression in TAP-deficient T2 cells). How it is done: By “HLA-binding” peptide we mean a peptide which binds to one or more HLA molecules. Typically, a peptide will show HLA binding in a T2 binding assay when present in a concentration range of 10 μM to 1 nM. Whether or not a peptide of human CD45 is an HLA-binding peptide can be determined using methods known in the art. These methods include the T2 HLA stabilisation assay described in FIG. 1, and the method described by Elvin et al (1993) J. Immunol. Methods 158, 161-171.
Peptide binding was measured using the T2 assay that is based on the ability of peptides to stabilise HLA-A0201 expression in the TAP-deficient T2 cells.
Sixteen peptides of the CD45 molecule were selected and 14 of them we tested in HLA-A0201 binding assays as described in the legend to FIG. 1.

Assay [1] concerns CTL from HLA-A0201 negative donors. The experiment in a line: Stimulation of peptide-specific allorestricted CTL responses by peptide. Type of assay: cell-based, human. An excerpt: Peptide-specific CTL were isolated from HLA-A0201 negative donors using the method described in WO 97/26328. Three peptide-specific lines were established and found to show specific killing of T2 target cells presenting peptide 1218 but not targets presenting control HLA-A0201− binding peptides (HBV(18-27)).
Peptide-specific CTL were isolated from HLA-A0201 negative donors using the method described in WO 97/26328. Three peptide-specific lines were established and found to show specific killing of T2 target cells presenting peptide 1218 but not targets presenting control peptides.

Where two headings read alike, the source gives them in different places.

On to “FLYDVIAST [huCD45/1218, peptide of human CD45]”, for which the HLA-A0201 binding entry with HLA-A0201 was “binds HLA-A0201”; with HLA-A0201 (listed as Peptide 1218), “one of the best binders”; with HLA-A0201 (listed as p1218) it was “one of the best binding peptides”; in the assay with HLA-A0201 (listed as peptide 1218), “one of the best binders”. For the same sequence, the “induction of peptide specific CTL” value in assay [1] (listed as Peptide 1218) is “can induce peptide specific CTL”; in assay [1] (listed as p1218), “reliably generate peptide-specific, allorestricted CTL”.
